Target: MUC1 (mucine) (UniProt P15941 24-1097)
Assay: electrochemical impedance spectroscopy (aptamer immobilized on electrode); 2 mM [Fe(CN)6]4-/3- redox probe; 1 mM Mg2+; observed (apparent) Kd, stated as about 0.1 U/mL; Binding buffer pH 7.4: 1 mM MgCl2, 140 mM NaCl, 2.7 mM KCl, 0.1 mM Na2HPO4, 1.8 mM KH2PO4; 45 min incubation; temperature not stated

Sequence of MUC1 (mucine) (P15941 24-1097): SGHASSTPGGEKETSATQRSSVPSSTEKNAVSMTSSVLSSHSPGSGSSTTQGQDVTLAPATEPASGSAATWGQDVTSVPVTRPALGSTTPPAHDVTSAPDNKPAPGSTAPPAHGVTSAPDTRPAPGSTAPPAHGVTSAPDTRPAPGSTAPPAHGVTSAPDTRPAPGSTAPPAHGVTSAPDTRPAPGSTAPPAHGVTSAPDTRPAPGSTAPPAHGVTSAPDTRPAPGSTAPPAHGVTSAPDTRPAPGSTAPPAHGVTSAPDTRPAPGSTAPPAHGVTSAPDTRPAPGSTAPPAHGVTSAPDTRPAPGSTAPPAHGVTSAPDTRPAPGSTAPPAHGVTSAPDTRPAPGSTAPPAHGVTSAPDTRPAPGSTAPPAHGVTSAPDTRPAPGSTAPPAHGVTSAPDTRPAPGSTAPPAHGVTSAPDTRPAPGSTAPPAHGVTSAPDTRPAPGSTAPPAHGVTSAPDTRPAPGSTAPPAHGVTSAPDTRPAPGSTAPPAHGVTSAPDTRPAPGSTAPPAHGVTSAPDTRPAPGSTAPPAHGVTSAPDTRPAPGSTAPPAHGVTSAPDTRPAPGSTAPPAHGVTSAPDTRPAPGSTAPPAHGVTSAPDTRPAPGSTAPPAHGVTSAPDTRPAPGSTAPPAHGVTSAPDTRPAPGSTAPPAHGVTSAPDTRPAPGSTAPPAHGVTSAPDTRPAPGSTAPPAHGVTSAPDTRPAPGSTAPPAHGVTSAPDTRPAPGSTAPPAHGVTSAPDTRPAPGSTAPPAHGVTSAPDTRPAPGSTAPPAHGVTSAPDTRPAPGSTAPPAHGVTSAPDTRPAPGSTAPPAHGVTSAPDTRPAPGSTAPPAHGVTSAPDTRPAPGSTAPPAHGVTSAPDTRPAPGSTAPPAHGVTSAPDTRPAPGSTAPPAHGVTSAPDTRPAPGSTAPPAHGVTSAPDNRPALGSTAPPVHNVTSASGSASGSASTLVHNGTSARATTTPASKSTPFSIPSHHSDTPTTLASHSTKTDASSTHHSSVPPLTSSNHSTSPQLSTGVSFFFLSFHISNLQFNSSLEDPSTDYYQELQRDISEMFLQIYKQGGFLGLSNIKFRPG

## GCAGTTGATCCTTTGGATACCCTGG (ssDNA, 3'-NH2) [MUC1 aptamer]
  Kd: 0.63 µM

From PMC5087439, “One Step Assembly of Thin Films of Carbon Nanotubes on Screen Printed Interface for Electrochemical Aptasensing of Breast Cancer Biomarker”
